Results taken from US9625458.
Positions count from the first letter of the chain named. Numbers in names are those of the source.

B1: dipeptide BP T44C conjugated to NBD (receptor, E. coli, not shown: small tags and cut ends)
chain: MKTLVYCSEGSPEGFNPQLFTSGTTYDASSVPLYNRLVEFKIGTCEVIPGLAEKWEVSEDGKTYTFHLRKGVKWHDNKEFKPTRELNADDVVFSFDRQKNAQNPYHKVSGGSYEYFEGMGLPELISEVKKVDDNTVQFVLTRPEAPFLADLAMDFASILSKEYADAMMKAGTPEKLDLNPIGTGPFQLQQYQKDSRIRYKAFDGYWGTKPQIDTLVFSITPDASVRYAKLQKNECQVMPYPNPADIARMKQDKSINLMEMPGLNVGYLSYNVQKKPLDDVKVRQALTYAVNKDAIIKAVYQGAGVSAKNLIPPTMWGYNDDVQDYTYDPEKAKALLKEAGLEKGFSIDLWAMPVQRPYNPNARRMAEMIQADWAKVGVQAKIVTYEWGEYLKRAKDGEHQTVMMGWTGDNGDPDNFFATLFSCAASEQGSNYSKWCYKPFEDLIQPARATDDHNKRVELYKQAQVVMHDQAPALIIAHSTVFEPVRKEVKGYVVDPLGKHHFENVSIE
modifications: NBD (N,N'-dimethyl-N-(iodoacetyl)-N'-(7-nitrobenz-2-oxa-1,3-diazol-4-yl)ethylenediamide) conjugated to the thiol of Cys 44
B2: dipeptide BP K394C mutant conjugated to NBD (protein, Escherichia coli, not shown: small tags and cut ends)
chain: B1 chain with C45T, K395C
modifications: NBD fluorophore (N,N'-dimethyl-N-(iodoacetyl)-N'-(7-nitrobenz-2-oxa-1,3-diazol-4-yl)ethylenediamide) conjugated to the thiol of Cys 394
B3: dipeptide BP W315C-NBD conjugate (receptor, E. coli, not shown: small tags and cut ends)
chain: B1 chain with C45T, W316C
modifications: NBD fluorophore conjugated to the thiol of Cys 315
B4: dipeptide BP R141C-Fluorescein conjugate (receptor, E. coli, not shown: small tags and cut ends)
chain: B1 chain with C45T, R142C
modifications: fluorescein (5-iodoacetamidofluorescein) conjugated to the thiol of Cys 141
B5: dipeptide BP K394C-JPW4042 conjugate (receptor, E. coli, not shown: small tags and cut ends)
chain: B1 chain with C45T, K395C
modifications: JPW4042 fluorophore conjugated to the thiol of Cys 394
B6: dipeptide BP R141C-Acrylodan conjugate (receptor, E. coli, not shown: small tags and cut ends)
chain: B1 chain with C45T, R142C
modifications: acrylodan fluorophore conjugated to the thiol of Cys 141
B7: dipeptide BP D450C-JPW4045 conjugate (receptor, E. coli, not shown: small tags and cut ends)
chain: B1 chain with C45T, D451C
modifications: JPW4045 fluorophore conjugated to the thiol of Cys 450
B8: dipeptide BP T44C-Fluorescein conjugate (receptor, E. coli, not shown: small tags and cut ends)
chain: B1 chain
modifications: fluorescein (5-iodoacetamidofluorescein) conjugated to the thiol of Cys 44
B9: dipeptide BP S111C-JPW4042 conjugate (receptor, E. coli, not shown: small tags and cut ends)
chain: B1 chain with C45T, S112C
modifications: JPW4042 fluorophore conjugated to the thiol of Cys 111
B10: dipeptide BP D450C-Acrylodan conjugate (receptor, E. coli, not shown: small tags and cut ends)
chain: B1 chain with C45T, D451C
modifications: acrylodan fluorophore conjugated to the thiol of Cys 450
B11: dipeptide BP T44C-NBD conjugate (receptor, E. coli, not shown: small tags and cut ends)
chain: B1 chain
modifications: NBD fluorophore conjugated to the thiol of Cys 44
B12: dipeptide BP S111C-Fluorescein conjugate (receptor, E. coli, not shown: small tags and cut ends)
chain: B1 chain with C45T, S112C
modifications: fluorescein (5-iodoacetamidofluorescein) conjugated to the thiol of Cys 111
B13: dipeptide BP W315C-JPW4045 conjugate (receptor, E. coli, not shown: small tags and cut ends)
chain: B1 chain with C45T, W316C
modifications: JPW4045 fluorophore conjugated to the thiol of Cys 315
B14: dipeptide BP K394C-NBD conjugate (receptor, E. coli, not shown: small tags and cut ends)
chain: B1 chain with C45T, K395C
modifications: NBD fluorophore conjugated to the thiol of Cys 394
B15: dipeptide BP D450C-JPW4039 conjugate (receptor, E. coli, not shown: small tags and cut ends)
chain: B1 chain with C45T, D451C
modifications: JPW4039 fluorophore conjugated to the thiol of Cys 450
B16: dipeptide BP W315C-Acrylodan conjugate (receptor, E. coli, not shown: small tags and cut ends)
chain: B1 chain with C45T, W316C
modifications: acrylodan fluorophore conjugated to the thiol of Cys 315
B17: dipeptide BP W315C-JPW4039 conjugate (receptor, E. coli, not shown: small tags and cut ends)
chain: B1 chain with C45T, W316C
modifications: JPW4039 fluorophore conjugated to the thiol of Cys 315
B18: dipeptide BP K394C-Fluorescein conjugate (receptor, E. coli, not shown: small tags and cut ends)
chain: B1 chain with C45T, K395C
modifications: fluorescein (5-iodoacetamidofluorescein) conjugated to the thiol of Cys 394
B19: dipeptide BP D450C-JPW4042 conjugate (receptor, E. coli, not shown: small tags and cut ends)
chain: B1 chain with C45T, D451C
modifications: JPW4042 fluorophore conjugated to the thiol of Cys 450
B20: dipeptide BP K394C-Acrylodan conjugate (receptor, E. coli, not shown: small tags and cut ends)
chain: B1 chain with C45T, K395C
modifications: acrylodan fluorophore conjugated to the thiol of Cys 394
B21: dipeptide BP S111C-JPW4039 conjugate (receptor, E. coli, not shown: small tags and cut ends)
chain: B1 chain with C45T, S112C
modifications: JPW4039 fluorophore conjugated to the thiol of Cys 111
B22: dipeptide BP K394C-JPW4039 conjugate (receptor, E. coli, not shown: small tags and cut ends)
chain: B1 chain with C45T, K395C
modifications: JPW4039 fluorophore conjugated to the thiol of Cys 394
B23: dipeptide BP S111C-Acrylodan conjugate (receptor, E. coli, not shown: small tags and cut ends)
chain: B1 chain with C45T, S112C
modifications: acrylodan fluorophore conjugated to the thiol of Cys 111
B24: dipeptide BP K394C conjugated to fluorescein (receptor, E. coli, not shown: small tags and cut ends)
chain: B1 chain with C45T, K395C
modifications: fluorescein (5-iodoacetamidofluorescein) conjugated to the thiol of Cys 394

The binders below were run against Gly-Leu dipeptide (assay: fluorimetric titration of the fluorophore conjugate with ligand; low end of the range over 21 conjugates).

Kd [nM]	Binder
6	B1

The binders below were run against Gly-Leu dipeptide (assay: fluorimetric titration of the fluorophore conjugate with ligand, fit to a binding isotherm).

Kd [nM]	Binder
6	B2

What follows are binders tested against Gly-Leu dipeptide (assay: fluorimetric titration of the fluorophore conjugate with ligand, fit to binding isotherm).

Kd [nM]	Binder
60	B3
38000	B4
78000	B5
2300	B6
2000	B7
640	B8
15800	B9
11000	B10
6	B11
2600	B12
3200	B13
12	B14
910	B15
130	B16
1000	B17
93000	B18
1500	B19
23000	B20
34000	B21
30000	B22
4800	B23

The binders below were run against Gly-Leu dipeptide (assay: fluorimetric titration of the fluorophore conjugate with ligand; high end of the range over 21 conjugates).

Kd [nM]	Binder
93000	B24
